Measurements as given in US20230124669A1.
Changes are numbered by the printed parent chain.

What was measured:
[1] = molecular target: neonatal Fc receptor FcRn; assay: FcRn binding of bispecific antibody; method not stated
[2] = molecular target: neonatal Fc receptor FcRn; assay: FcRn binding of bispecific antibody at acidic pH; method not stated

Chain of neonatal Fc receptor FcRn (P55899 24-297, chain 1 of 2): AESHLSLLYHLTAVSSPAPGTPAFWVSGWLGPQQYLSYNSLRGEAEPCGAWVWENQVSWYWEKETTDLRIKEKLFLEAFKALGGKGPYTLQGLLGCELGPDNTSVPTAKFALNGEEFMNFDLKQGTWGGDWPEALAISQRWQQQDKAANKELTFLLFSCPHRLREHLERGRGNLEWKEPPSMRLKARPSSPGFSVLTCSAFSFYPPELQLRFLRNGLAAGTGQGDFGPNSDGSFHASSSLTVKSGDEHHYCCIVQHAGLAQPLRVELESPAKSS
Chain of neonatal Fc receptor FcRn (P61769 21-119, chain 2 of 2, further chain): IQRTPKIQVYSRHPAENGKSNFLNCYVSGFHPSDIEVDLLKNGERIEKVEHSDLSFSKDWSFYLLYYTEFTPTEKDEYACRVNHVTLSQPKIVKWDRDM

B1: TY21489 (bispecific antibody, part only; not given: rest of both heavy chains, lights, not shown: a dimerising Fc or GST)
heavy, part 1: GQPREPQVYTLPPSRKKLTKNQVKLTCLVKGFYPSDIAVEWESNGQPENNYKTTPPVLDCDGSFFLYSKLTVDKSRWQQGNVFSCSVMHEALHNHYTQKSLSLSPGK
heavy, part 2: B1 heavy, part 1 with L11D, K16D, K17E, K24S, K30D, N50C, C60S, K99D
**Q.** Which results are given for B1?
**A.** pH dependent FcRn binding/% [1]: 0%; FcRn binding at acidic pH/nM [2]: 53.7 nM
